Reference: patent publication US20150313192

How the values were obtained:
[1] = tested on: RELA TALEN11-1R (right monomer) (synthetic (Xanthomonas TALE)?); experiment: cell_activity; details: TALEN pair mRNA 2 ng/ul zygote injection, 8 of 39 piglets; 21% of embryos tested in vitro; assayed as pair with left monomer; left/right assignment to …
[2] = tested on: RELA TALEN11-1L (left monomer) (synthetic (Xanthomonas TALE)?); experiment: cell_activity; details: TALEN pair mRNA 2 ng/ul zygote injection, 8 of 39 piglets; 21% of embryos tested in vitro; assayed as pair with right monomer; left/right assignment to …

Row | Sequence | activity (% edited of piglets born) [1] | activity (% edited of piglets born) [2]
1 | AGTACCCTGAGGCTAT (double strand) [RELA TALEN right half-site] | 21 | –
2 | GCCCCCCCACACAGCTG (double strand) [RELA TALEN left half-site] | – | 21
